In assay [1] the target is T1, human 4-1BB (human, UniProt Q07011 24-255).
T1 construct: whole, on cells; also called CD137; TNFRSF9
In words: FACS, CHO-K1/hu 4-1BB cells [E].
Experimental: (§1) Antibody binding experiments at the cellular level were conducted using a CHO-K1 cell strain overexpressing human 4-1BB (CHO-K1-hu 4-1BB, Genescript) and a CHO-K1 cell strain overexpressing cynomolgus monkey 4-1BB (CHO-K1-cyno 4-1BB, Genescript). Briefly, the CHO-K1-hu 4-1BB and CHO-K1-cyno 4-1BB cells were digested and resuspended in DMEM complete medium, and the cell density was adjusted to 1×10⁶ cells/mL. […] The cells were incubated at 4° C. for 1 h away from light. Thereafter, the cells in each well were rinsed twice with 100 μL of pre-cooled PBS, and centrifuged at 500 g at 4° C. for 5 min, and then the supernatant was discarded. […] The plate was incubated away from light at 4° C. for 30 min. The cells in each well were rinsed twice with 100 μL of pre-cooled PBS, and centrifuged at 500 g at 4° C. for 5 min, and then the supernatant was discarded. Finally, the cells in each well were resuspended in 200 μL of pre-cooled PBS, and the fluorescence signal values were read using a BD FACS CANTOII.

The target in assay [2] is T2, cynomolgus monkey 4-1BB (cynomolgus monkey).
T2 construct: whole, on cells; also called CHO-K1-cyno 4-1BB; CHO-K1/cyno4-1BB
In words: FACS, CHO-K1/cyno 4-1BB cells [E].
Experimental: (§2) This example is intended to investigate the in vitro binding activity of anti-human 4-1BB HCAb and H2L2 monoclonal antibodies to human and cynomolgus monkey 4-1BB. Antibody binding experiments at the cellular level were conducted using a CHO-K1 cell strain overexpressing human 4-1BB (CHO-K1-hu 4-1BB, Genescript) and a CHO-K1 cell strain overexpressing cynomolgus monkey 4-1BB (CHO-K1-cyno 4-1BB, Genescript). Briefly, the CHO-K1-hu 4-1BB and CHO-K1-cyno 4-1BB cells were digested and resuspended in DMEM complete medium, and the cell density was adjusted to 1×10⁶ cells/mL. […] The cells were incubated at 4° C. for 1 h away from light. Thereafter, the cells in each well were rinsed twice with 100 μL of pre-cooled PBS, and centrifuged at 500 g at 4° C. for 5 min, and then the supernatant was discarded. […] The plate was incubated away from light at 4° C. for 30 min. The cells in each well were rinsed twice with 100 μL of pre-cooled PBS, and centrifuged at 500 g at 4° C. for 5 min, and then the supernatant was discarded. Finally, the cells in each well were resuspended in 200 μL of pre-cooled PBS, and the fluorescence signal values were read using a BD FACS CANTOII.

For assay [3], the target named is T1, human 4-1BB. In words: FACS, CHO-K1/hu 4-1BB cells [A].
Experimental: as §2
The target of assay [4] is T2, cynomolgus monkey 4-1BB. Briefly: FACS, CHO-K1/cyno 4-1BB cells [A].
Experimental: as §2
In assay [5] the target is T1, human 4-1BB. In words: FACS, CHO-K1/h4-1BB cells [K].
Experimental: Antibody binding experiments at the cellular level were conducted using a CHO-K1 cell strain overexpressing human 4-1BB (CHO-K1/hu 4-1BB, Genscript, #M00538) and a CHO-K1 cell strain overexpressing cynomolgus monkey 4-1BB (CHO-K1/cyno 4-1BB, Genscript, #M00569). Briefly, the CHO-K1-hu 4-1BB and CHO-K1/cyno 4-1BB cells were digested, resuspended in F12K complete medium, and washed once with PBS. The cell density was adjusted to 1×10⁶ cells/mL with PBS. […] The cells were incubated at 4° C. for 1 h away from light. Thereafter, the cells in each well were rinsed twice with 100 μL of pre-cooled PBS, and centrifuged at 500 g at 4° C. for 5 min, and then the supernatant was discarded. […] The plate was incubated away from light at 4° C. for 30 min. The cells in each well were rinsed twice with 100 μL of pre-cooled PBS, and centrifuged at 500 g at 4° C. for 5 min, and then the supernatant was discarded. Finally, the cells in each well were resuspended in 200 μL of pre-cooled PBS, and the fluorescence signal values were read using a BD FACS CANTOII or an ACEA NovoCyte flow cytometer.
Assay [6] deals with T2, cynomolgus monkey 4-1BB. In words: FACS, CHO-K1/cyno 4-1BB cells [F].
Experimental: as §2
For assay [7], the target named is T1, human 4-1BB. In words: FACS, CHO-K1/hu 4-1BB cells [H].
Experimental: as §1
Assay [8] has as its target T1, human 4-1BB. Briefly: FACS, CHO-K1/hu 4-1BB cells [F].
Experimental: as §2
Assay [9] has as its target T2, cynomolgus monkey 4-1BB. In words: FACS, CHO-K1/cyno 4-1BB cells [G].
Experimental: as §1
Assay [10] concerns the target T2, cynomolgus monkey 4-1BB. Briefly: FACS, CHO-K1/cyno 4-1BB cells [C].
Experimental: as §2
The target in assay [11] is T1, human 4-1BB. In words: FACS, CHO-K1/hu 4-1BB cells [C].
Experimental: as §2
Assay [12] concerns the target T1, human 4-1BB. In words: FACS, CHO-K1/hu 4-1BB cells [D].
Experimental: as §1
Assay [13] concerns the target T2, cynomolgus monkey 4-1BB. Briefly: FACS, CHO-K1/cyno 4-1BB cells [D].
Experimental: as §2
Assay [14] addresses T2, cynomolgus monkey 4-1BB. Briefly: FACS, CHO-K1/cyno 4-1BB cells [B].
Experimental: as §2
Assay [15] concerns the target T1, human 4-1BB. Briefly: FACS, CHO-K1/hu 4-1BB cells [B].
Experimental: as §2
Assay [16] deals with T2, cynomolgus monkey 4-1BB. Briefly: FACS, CHO-K1/cyno 4-1BB cells [H].
Experimental: as §1

Here are results for twelve molecules from US20230235090A1 (HARBOUR BIOMED US, published 2023).

T1 sequence (Q07011 24-255): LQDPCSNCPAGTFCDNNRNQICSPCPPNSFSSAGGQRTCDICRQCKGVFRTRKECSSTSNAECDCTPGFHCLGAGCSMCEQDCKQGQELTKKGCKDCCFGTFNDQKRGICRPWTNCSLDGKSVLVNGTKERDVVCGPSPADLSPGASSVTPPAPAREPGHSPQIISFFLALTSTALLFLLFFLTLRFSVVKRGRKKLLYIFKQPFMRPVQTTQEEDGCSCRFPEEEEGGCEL

B1: PR001833 (antibody, human IgG1, V domains shown)
VH: EVQLLESGGGLVQPGGSLRLSCAASGFTFSSYAMSWVRQAPEKGLEWVSSISGSGGSTFYADSVKGRFTISRDNSKNTLYLQMNSLRAEDTAVYFCAKEGATETDDYHFNTDVWGQGTTVTVSS
notes: anti-4-1BB HCAb, human IgG1 Fc
Turning to B1, in assay [1], a half-maximal effect (EC50) was put at 0.21 nM and the “Maximum MFI” value amounted to 1710 MFI. In [2], the EC50 was found to be 1.02 nM and the “Maximum MFI” value was determined as 12600 MFI.

B2: PR001760 (antibody, human IgG1, V domains shown)
VH: EVQLVESGGGVVQPGGSLRLSCAASGFTFSNYAMTWVRQAPEKGLEWVSSISGSGVSTYYADSVKGRFTISRDNSKNTLYLQMTRLTAEDTAVYFCAKEGSSETDDHYYNVDVWGQGTTVTVSS
notes: as for B1
Turning to B2, the EC50 in assay [3] worked out at 0.198 nM; in assay [4] it was 0.443 nM; in assay [5], 3.76 nM. Moreover, the “Maximum MFI” value came out at 1740 MFI in assay [3], 17400 MFI in [4] and 83600 MFI in assay [5].

B3: PR001838 (antibody, human IgG1, V domains shown)
VH: EVQLLESGGGLVQPGGSLRLSCAASGFTFSNYAMSWFRQPPETGLKWVSSIDGSGGDTYYADSVKGRFTISRDNSKNTLYLQMNSLRAEDTAVYYCAKEGSHGTDDSHYDVDVWGQGTTVTVSS
notes: as for B1
As to B3, the EC50 in assay [6] stood at 1.09 nM; in [7], 0.851 nM; in assay [8], 0.248 nM; in assay [9], 0.329 nM. Also, the figures for the “Maximum MFI” value in assay [6], in [7] and in assay [8] were 13400 MFI, 102000 MFI and 1770 MFI, respectively.

B4: PR001771 (antibody, human IgG1, V domains shown)
VH: EVQLLESGGGLVQPGGSLRLSCAASGFTFSNYAMTWVRQPPGKGLEWVSSISGSGGSTYYADSVKGRFTISRDNSKNTLYLQMNSLRAEDTAVYYCAKEGTGTTSDYYYNVDVWGQGTTVTVSS
notes: as for B1
Take B4: in assay [10], the EC50 is 3.77 nM and the “Maximum MFI” value was 65700 MFI. Besides, in assay [11], the response was half-maximal at 0.532 nM (EC50) and the “Maximum MFI” value was found to be 1720 MFI.

B5: PR001830 (antibody, human IgG1, V domains shown)
VH: EVQLLESGGGLVQPGGSLRLSCTASGFTFSNYAMSWVRQAPEKGLEWVSSISGSGGSTFYADSVKGRFTISRDNSKNTLYLQMNSLRAEDTAVYFCAKEGSSETDDHYYNVDVWGQGTTVTVSS
notes: as for B1
On to B5, for which the values for the EC50 in [1] and in assay [2] were 0.209 nM and 0.899 nM, respectively. The “Maximum MFI” value in assay [1] came out at 1830 MFI; in assay [2], 14000 MFI.

B6: PR001781 (antibody, human IgG1, V domains shown)
VH: EVQLLESGGGLVQLGGSLRLSCAASGFTFSSYAMTWVRQAPEKGLEWVSSISGSGGNTYYADSVKGRFTISRDNSKNTLYLQMNSLRAEDTAVYYCAKERTGTTGDYYYNVDVWGQGTTVTVSS
notes: as for B1
B6: in assay [12], the EC50 was found to be 0.492 nM and the “Maximum MFI” value was 1760 MFI. In addition, in assay [13], a half-maximal effect (EC50) was put at 3.1 nM and the “Maximum MFI” value was determined as 58300 MFI.

B7: PR001780 (antibody, human IgG1, V domains shown)
VH: EVQLLESGGGLIQPGGSLRLSCAASGFTFSSFAMTWVRQAPGKGLEWVSTISGSGDNTYYADSVKGRFTISRDNSKNTLYLQMNSLRAEDTAVYFCAKEDTAVASDYYYNIDVWGQGTTVTVSS
notes: as for B1
B7: the EC50 in assay [12] is 0.708 nM; in [13], 2.99 nM. In addition, the entries for the “Maximum MFI” value in assay [12] and in [13] were 1700 MFI and 55500 MFI, respectively.

B8: PR001836 (antibody, human IgG1, V domains shown)
VH: EVQLLESGGGLVQPGGSLRLSCAASGFIFSNFAMTWVRQPPEKGLKWVSSINGSGFNTYYTDSVKGRFTISRDNSRNTLYLQMNRLTAEDTAVYFCAKEGSSETDDHYYNVDVWGQGTTVTVSS
notes: as for B1
For B8, the EC50 in assay [2] was 2.41 nM; in assay [8], 0.28 nM. In addition, the “Maximum MFI” value was determined as 15900 MFI in [2] and 1830 MFI in assay [8].

B9: PR001767 (antibody, human IgG1, V domains shown)
VH: EVQLVETGGGLIQPGGSLRLSCAASGFTVSSNYMSWVRQAPGKGLEWVSVIYSDGSTYYADSVKGRFTISRDNSKNTLYLQMNSLRAEDTAVYYCARDRYYGSGNYPTAYYGMDVRGQGTTVTVSS
notes: as for B1
B9: in assay [14], a half-maximal response (EC50) required 25 nM and the “Maximum MFI” value turned out to be 68400 MFI. In assay [15], the EC50 came out at 5.87 nM and the “Maximum MFI” value was 1450 MFI.

B10: PR001840 (antibody, human IgG1, V domains shown)
VH: EVQLVESGGGLVQPGGSLRLSCAASGFTFSSYWMHWVRQAPGKGLVWVSRINSDGSSTSYADSVQGRFTISRDNAKNTLYLQMNSLRAEDTAVYYCVRKGSSSYYHYSIEDDWGQGTLVTVSS
notes: as for B1
On to B10, for which, in [6], the EC50 came to 1.25 nM and the “Maximum MFI” value was determined as 7300 MFI. Further, in assay [8], the EC50 was found to be 0.37 nM and the “Maximum MFI” value amounted to 1670 MFI.

B11: Utomilumab analog (PR000483) (antibody, human IgG2, lambda, V domains shown)
VH: EVQLVQSGAEVKKPGESLRISCKGSGYSFSTYWISWVRQMPGKGLEWMGKIYPGDSYTNYSPSFQGQVTISADKSISTAYLQWSSLKASDTAMYYCARGYGIFDYWGQGTLVTVSS
VL: SYELTQPPSVSVSPGQTASITCSGDNIGDQYAHWYQQKPGQSPVLVIYQDKNRPSGIPERFSGSNSGNTATLTISGTQAMDEADYYCATYTGFGSLAVFGGGTKLTVLG
notes: anti-4-1BB control antibody; also called Tab
On to B11, for which the 50% effective concentration (EC50) in assay [6] is 0.485 nM; in assay [14], 3.46 nM; in assay [10] it was 3.46 nM; in [16] it was 0.929 nM; in assay [13] it was 3.46 nM; in [4], 0.485 nM. In [2], this molecule came in with an EC50 of 0.485 nM. Further, the “Maximum MFI” value came to 11000 MFI in assay [6]; 55500 MFI in assay [14]; 55500 MFI in assay [10]; 55500 MFI in assay [13]; 11000 MFI in [4]; 11000 MFI in [2].

B12: PR001774 (antibody, human IgG1, V domains shown)
VH: EVQLVESGGGLVQPGGSLRLSCAASGFTFSSFAMTWVRQAPEKGLEWVSTISGSGDTTYYADSVKGRFTISRDSSKNTLYLQMNSLRAEDSAVYFCAKEATAMASDYYYGVDVWGQGTTVTVSS
notes: as for B1
For B12, in [10], it took 6.73 nM to reach a half-maximal effect (EC50) and the “Maximum MFI” value was 48000 MFI. Also, in [11], it took 1.27 nM to reach a half-maximal effect (EC50) and the “Maximum MFI” value is 1540 MFI.
